The values below come from article PMC10421103, “Efficiency Assessment between Entrapment and Covalent Bond Immobilization of Mutant β-Xylosidase onto Chitosan Support” (Polymers, 2023).

Substrate in the data set: O=[N+]([O-])c1ccc(O[C@@H]2OC[C@@H](O)[C@H](O)[C@H]2O)cc1
As to the kind of experiment: purified protein. The following applies: free enzyme, partially purified, 200 mM citrate-phosphate-glycine buffer pH 6.5, 50 °C, 0.22–2.00 mM substrate. The data set is classed as biochemical, Geobacillus stearothermophilus.

B1: XynB2^Y509E (Geobacillus stearothermophilus; Y509E) (protein)
chain: MATNLFFNAHHSPVGAFASFTLGFPGKSGGLDLELARPPRQNVFIGVESPHEPGLYHILPFAETAGEDESKRYDIENPDPNPQKPNILIPFAKERIEREFRVATDTWKAGDLTLTIYSPVKAVPDPETASEEELKLALVPAVIVEMTIDNTNGTRTRRAFFGFEGTDPYTSMRRIDDTCPQLRGVGQGRILGIASKDEGVRSALHFSMEDILTATLEENWTFGLGKVGALIADVPAGEKKTYQFAVCFYRGGCVTAGMDASYFYTRFFHNIEEVGLYALEQAEVLKEQAFRSNELIEKEWLSDDQKFMMAHAIRSYYGNTQLLEHEGKPIWVVNEGEYRMMNTFDLTVDQLFFELKMNPWTVKNVLDFYVERYSYEDRVRFPGDETEYPGGISFTHDMGVANTFSRPHYSSYELYGISGCFSHMTHEQLVNWVLCAAVYIEQTKDWAWRDRRLTILEQCLESMVRRDHPDPEKRNGVMGLDSTRTMGGAEITTYDSLDVSLGQARNNLELAGKCWAAYVALEKLFRDVGKEELAALAREQAEKCAATIVSHVTEDGYIPAVMGEGNDSKIIPAIEGLVFPYFTNCHEALREDGRFGDYIRALRQHLQYVLREGICLFPDGGWKISSTSNNSWLSKIYLCQFIARRILGWEWDEQGKRADAAHVAWLTHPTLSIWSWSDQIIAGEISGSKYYPRGVTSILWLEEGE
notes: recombinant in E. coli C43 from plasmid pJAVI100 (xynB2 with Y509E); partially purified by heat treatment 45 °C and dialysis; GH52
On to B1, for which the Km worked out at 900 ± 100 µM and the Vmax came to 0.0011 µmol/min.
